# T1: VapC-3 toxin of Mtb VapBC-3 (Rv0300-Rv0301) (Mycobacterium tuberculosis, UniProt P9WFB9 2-141)
# T1 sequence: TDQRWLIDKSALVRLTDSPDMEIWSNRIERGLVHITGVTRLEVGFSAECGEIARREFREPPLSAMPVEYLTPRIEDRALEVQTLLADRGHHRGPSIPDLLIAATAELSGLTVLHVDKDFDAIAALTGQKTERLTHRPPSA
# B1: Rv0812, putative Mtb 4-amino-4-deoxychorismate (ADC) lyase (PabC) (enzyme)
# chain: MVVTLDGEILQPGMPLLHADDLAAVRGDGVFETLLVRDGRACLVEAHLQRLTQSARLMDLPEPDLPRWRRAVEVATQRWVASTADEGALRLIYSRGREGGSAPTAYVMVSPVPARVIGARRDGVSAITLDRGLPADGGDAMPWLIASAKTLSYAVNMAVLRHAARQGAGDVIFVSTDGYVLEGPRSTVVIATDGDQGGGNPCLLTPPPWYPILRGTTQQALFEVARAKGYDCDYRALRVADLFDSQGIWLVSSMTLAARVHTLDGRRLPRTPIAEVFAELVDAAIVSDR
# B2: Mtb fumarase (enzyme)
# chain: MAVDADSANYRIEHDTMGEVRVPAKALWRAQTQRAVENFPISGRGLERTQIRALGLLKGACAQVNSDLGLLAPEKADAIIAAAAEIADGQHDDQFPIDVFQTGSGTSSNMNTNEVIASIAAKGGVTLHPNDDVNMSQSSNDTFPTATHIAATEAAVAHLIPALQQLHDALAAKALDWHTVVKSGRTHLMDAVPVTLGQEFSGYARQIEAGIERVRACLPRLGELAIGGTAVGTGLNAPDDFGVRVVAVLVAQTGLSELRTAANSFEAQAARDGLVEASGALRTIAVSLTKIANDIRWMGSGPLTGLAEIQLPDLQPGSSIMPGKVNPVLPEAVTQVAAQVIGNDAAIAWGGANGAFELNVYIPMMARNILESFKLLTNVSRLFAQRCIAGLTANVEHLRRLAESSPSIVTPLNSAIGYEEAAAVAKQALKERKTIRQTVIDRGLIGDRLSIEDLDRRLDVLAMAKAEQLDSDRL
# B3: VapB-3 antitoxin of Mtb VapBC-3 (Rv0300-Rv0301) (natural protein)
# chain: MSDVLIRDIPDDVLASLDAIAARLGLSRTEYIRRRLAQDAQTARVTVTAADLRRLRGAVAGLGDPELMRQAWR
# Tests used:
# dynamic light scattering = target: the molecule itself; assay: dynamic light scattering
# crystal structure [1] = target: the molecule itself; assay: crystal structure
# [2] = target: T1, VapC-3 toxin of Mtb VapBC-3 …; assay: crystal structure
# crystal structure [3] = target: the molecule itself; assay: crystal structure; remark: listed apart in the source
binder,measurement,setting,value
B1,stoichiometry N,dynamic light scattering,2
B2,stoichiometry N,crystal structure [1],4
B3,binding result,[2],binds
same,binding result,crystal structure [3],binds

# Reference: PMC3310434 (Tuberculosis (Edinburgh, Scotland), 2011)
